The target of the test is T1, CD25-Fc (UniProt P01589 22-240).
T1 construct: Analyte flowed over the immobilised constructs in SPR (16, 8, 4, 2, 1 nM); also called IL-2Ralpha-Fc; not shown: Fc part of the reagent
T1 sequence (looked up): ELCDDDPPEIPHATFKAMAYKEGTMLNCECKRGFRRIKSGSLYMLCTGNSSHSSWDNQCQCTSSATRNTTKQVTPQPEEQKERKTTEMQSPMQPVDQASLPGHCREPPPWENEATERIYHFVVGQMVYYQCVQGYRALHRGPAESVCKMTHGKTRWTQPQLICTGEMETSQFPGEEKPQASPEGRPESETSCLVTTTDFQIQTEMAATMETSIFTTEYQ
The test can be described thus: SPR (Reichert 4Channel, 25 C): MMP-activated construct immobilised on the chip by amine coupling, CD25-Fc flowed over as analyte.

B1: AK168 after protease cleavage (Fc fusion)
chain: LYHPSGPAPTSSSTKKTQLQLEHLLLDLQMILNGINNYKNPKLTAMLTAKFAMPKKATELKHLQCLEEALKPLEEVLNLAQSKNFHLRPRDLISNINVIVLELKGSETTFMCEYADETATIVEFLNRWITFAQSIISTLT
notes: The fragments present on the SPR chip are not described
As to B1, the binding result is given as “no binding”.

For the origin of these results see patent US20260115302A1 (XILIO DEVELOPMENT, published 2026).
